Test results reported in patent publication US9969998B2, “Compositions of adenosine deaminase-2 (ADA2), variants thereof and methods of using same” (Halozyme, Inc., priority 2014, dated 2018).

Assays:
[1] = Distribution of labeled PEG-ADA2-K374D in CT26 peritibial tumors (IVIS fluorescent imaging); format: in vivo, Balb/C mice; settings: for Fluorescent intensity at tumor: 0.5 mg/kg IV
Description: To assess the distribution and elimination of administered PEG-ADA2-K374D in the tumor microenvironment or in normal organs, immunofluorescence was used to assess the presence of PEG-ADA2-K374D administered to mice. PEG-ADA2-K374D was labeled at room temperature for 60 minutes with DyLight755 Sulfydryl-Reactive Dye (DL755), a near-IR fluor, using the DyLight 755 Antibody Labeling Kit (Thermo Scientific, Rockford, Ill.). Alexa Fluor 750 (AF 750) labeled bovine serum albumin (BSA, 1 mg/mL) was purchased from (Life Technology, Carlsbad, Calif.).
CT26 syngeneic tumors were produced by injecting 2×10^5 cells in 0.05 mL injection volume per animal into the right peritibial muscle of male Balb/C mice. When average tumor size reached 600 mm^3, tumor-bearing mice were staged into 2 groups (n=4/group) to receive either PEG-ADA2-K374D^DL755 at 0.5 mg/kg or BSA^AF750 at 0.5 mg/kg intravenously. The distribution of DL755 labeled PEG-ADA2-K374D (PEG-ADA2-K374D^DL755) and AF 750 labeled BSA (BSA^AF750) in mouse tumors was assessed using the IVIS Caliper fluorescent imaging system with an excitation wavelength of 745 nm and an emission wavelength of 800 nm (Caliper Life Sciences, Alameda, Calif.) and signal intensity was measured with LivingImage software. Images were captured before administration of labeled proteins and at 10 minute, 2, 6 hours and daily after administration of labeled proteins.

[2] = Thermal stability by differential scanning fluorimetry (DSF); format: physicochemical; settings: 0.1-1 mg/mL protein
Description: The stability of the rHuADA2 WT and variants was measured by differential scanning fluorimetry (DSF) at increasing temperatures. DSF measures conformational stability, which correlates with thermal stability. The melting temperature (Tm) in DSF is defined as the midpoint of the protein unfolding transition.
Non-PEGylated WT rHuADA2, non-PEGylated rHuADA2 variants, and PEGylated forms of WT rHuADA2 and rHuADA2 variants were prepared at concentrations of 0.1-1 mg/mL and mixed with the ROX™ protein thermal shift dye (Applied Biosystems, Carlsbad, Calif.; Cat. No. 4461146) to a final dye concentration that corresponds to a 125-fold dilution of the stock ROX™ solution. Protein samples were then loaded into 96-well plate at a volume of 20 μL/well in triplicate. A ViiA7 RT-PCR System (Applied Biosystems, Carlsbad, Calif.) was used to measure the shift in fluorescence as the temperature of the samples were increased. The reactions were subjected to the following steps: incubation at 25° C. for 2 min; ramping of temperature from 25 to 99° C. at a rate of 0.05° C. per second; followed by a 99° C. incubation for 2 min. The wavelengths used for emission and excitation were 623 nanometers (nm) and 580 nm, respectively.

[3] = Kinetic assessment of adenosine deaminase activity (ammonia assay, Michaelis-Menten); format: biochemical; settings: [E] = 8.5 nM; for kcat: kcat=Vmax/0.0085/60
How it was run: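 Coupled ammonia assay: rHuADA2 WT or variants (1 μg/mL, 17 nM in 2× mix) with adenosine 20 μM–20 mM, α-ketoglutarate, NADPH and GDH, at pH 7.6 or pH 6.5 (PIPES), room temperature. Michaelis-Menten fit gave Km, Vmax, kcat, kcat/Km.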

[4] = Spectrophotometric adenosine deaminase assay at varying pH (pH optimum); format: biochemical
Description: Adenosine deaminase activity of rHuADA2 and variants at varying pH were assessed to determine the pH optimum of each. The adenosine deaminase activity was determined spectrophotometrically by direct measurement of changes in adenosine absorbance. […] During the deamination reaction, the absorbance of ADO decreases while that of INO increases with time. Since the dynamic changes in absorbance make it difficult to monitor activity at a single wavelength, the relative ADO activity was determined as a ratio of the ADO peak to isobestic point (i.e. the wavelength where ADO and INO have the same extinction coefficient). The isobestic point, which is 253 nm, remains unchanged and is concentration independent, so that it is the reference point to correct for volume or intensity discrepancies.
To construct the standard curve for ADO and INO, a series of solution mixtures in 0.001% Tween-20 containing different concentrations of ADO and INO were prepared. The total concentration of ADO and INO mix was 50 μM, in 1×PBS (10 mM phosphate, 137 mM NaCl, 2.7 mM KCl), pH 7.4. The samples were scanned with the wavelengths between 220 nm and 300 nm to determine the isosbestic point, where all spectra cross.
For performing the spectrophotometric adenosine deaminase assay of ADA2 and variants, a 2× solution containing 10 mM ADO in 100 mM potassium phosphate buffer (KPB), 0.1% Tween-20 at different pHs (i.e. 5.5, 6, 6.5, 6.75, 7, 7.25, 7.4, 7.75 and 8) were prepared. A separate 2× solution containing 2 μg/mL WT rHuADA2 or variants were prepared in the same 100 mM potassium phosphate buffer (KPB), 0.1% Tween-20 at the respective pH (i.e. 5.5, 6, 6.5, 6.75, 7, 7.25, 7.4, 7.75 and 8). An equal volume of the ADO solution and the ADA2 solution (wildtype or variants) were mixed to initiate reaction. At each time point (i.e. 1, 3, 5, 7, 9, 11, 13 and 15 min), a small aliquot (4 μl) was removed and diluted 50 times by adding to 196 μl 1×PBS, pH 7.4. The diluted samples were further diluted 2 fold (in duplicates) by adding 85 μl samples to 85 μl 1×PBS in a UV-transparent half area plate. The absorbance at 253 nm and 261 nm were measured of each diluted sample.
Adenosine concentration was determined using the A261/A253 ratio and the standard curve. Adenosine deaminase activity was measured by negative change in ADO concentration per min×100.

[5] = Heparin binding ELISA (heparin coated microtiter plate); settings: single and S265N combination variants (Table 34)
Description: A 96-well plate was coated with 100 μL of 200 μg/mL heparin sodium salt (Calibochem, EMD Milipore, Billerica, Mass.; Cat. No. 375095) in Na2CO3 buffer (pH 9.6), overnight at 4° C. The wells were blocked with 5% milk in PBS, and washed 6 times with PBS. 3 μM of select rHuADA2 variants (see Table 20), WT rHuADA2 (positive control) and WT rHuADA1 (negative control) were added to the wells individually and incubated for 2 hours at room temperature, followed by washing 6 times with PBS. 100 μL of 1:1000 diluted horseradish peroxidase (HRP)-anti-FLAG antibody (Abcam, Cambridge, UK; Cat. No. Ab1238) was added to the wells to detect binding and incubated at room temperature for 1 hour. The ELISA reactions were developed by adding the 3,3′,5,5′-Tetramethylbenzidine (TMB) substrate solution (Pierce, Thermo Fisher Scientific, Rockford, Ill.) according the manufacturer's instructions and reading the optical density at 450 nm (OD450) on a plate reader.

BSA^AF750: Alexa Fluor 750 (AF 750) labeled bovine serum albumin, control agent
Fluorescent intensity at tumor ([1]; Hour 0.2): 2.95E+09
Fluorescent intensity at tumor ([1]; Hour 2): 3.92E+09
Fluorescent intensity at tumor ([1]; Hour 6): 4.64E+09
Fluorescent intensity at tumor ([1]; Hour 24): 3.18E+09
Fluorescent intensity at tumor ([1]; Hour 48): 1.94E+09
Fluorescent intensity at tumor ([1]; Hour 72): 1.30E+09
Fluorescent intensity at tumor ([1]; Hour 96): 9.86E+08
Fluorescent intensity at tumor ([1]; Hour 144): 7.78E+08
Fluorescent intensity at tumor ([1]; Hour 168): 6.39E+08
Fluorescent intensity at tumor ([1]; Hour 196): 6.59E+08
Fluorescent intensity at tumor ([1]; Hour −1 (before administration)): 7.86E+08
eliminated from tumors ([1]; day 6 post injection, 0.5 mg/kg intravenously): ~100%

B1: S265N/R23E/K374D: ADA2 combination variant SEQ ID NO:62 (protein)
chain: IDETRAHLLLKEKMMRLGGELVLNTKEELANERLMTLKIAEMKEAMRTLIFPPSMHFFQAKHLIERSQVFNILRMMPKGAALHLHDIGIVTMDWLVRNVTYRPHCHICFTPRGIMQFRFAHPTPRPSEKCSKWILLEDYRKRVQNVTEFDDSLLRNFTLVTQHPEVIYTNQNVVWSKFETIFFTISGLIHYAPVFRDYVFRSMQEFYEDNVLYMEIRARLLPVYELSGEHHDEEWSVKTYQEVAQKFVETHPEFIGIKIIYNDHRSKDVAVIAESIRMAMGLRIKFPTVVAGFDLVGHEDTGHSLHDYKEALMIPAKDGVKLPYFFHAGETDWQGTSIDRNILDALMLNTTRIGHGFALSKHPAVRTYSWDKDIPIEVCPISNQVLKLVSDLRNHPVATLMATGHPMVISSDDPAMFGAKGLSYDFYEVFMGIGGMKADLRTLKQLAMNSIKYSTLLESEKNTFMEIWKKRWDKFIADVATK
modifications: human ADA2 S262N/R20E/K371D, mature numbering
Tm, melting temperature by DSF [2]: 59.8 °C
Km ([3]; pH 6.5): 1500 µM
Vmax ([3]; pH 6.5): 43.42 µM/min
kcat ([3]; pH 6.5): 85.14 s⁻¹
Km ([3]; pH 7.6): 3130 µM
Vmax ([3]; pH 7.6): 72.78 µM/min
kcat ([3]; pH 7.6): 142.71 s⁻¹
Adenosine deaminase activity Δ [ADO]/min × (−100) ([4]; pH 5.5): 20.27
Adenosine deaminase activity Δ [ADO]/min × (−100) ([4]; pH 6): 28.16
Adenosine deaminase activity Δ [ADO]/min × (−100) ([4]; pH 6.5): 35.51
Adenosine deaminase activity Δ [ADO]/min × (−100) ([4]; pH 6.75): 33.24
Adenosine deaminase activity Δ [ADO]/min × (−100) ([4]; pH 7): 40.08
Adenosine deaminase activity Δ [ADO]/min × (−100) ([4]; pH 7.25): 42.28
Adenosine deaminase activity Δ [ADO]/min × (−100) ([4]; pH 7.4): 34.66
Adenosine deaminase activity Δ [ADO]/min × (−100) ([4]; pH 7.75): 18.46
Adenosine deaminase activity Δ [ADO]/min × (−100) ([4]; pH 8): 4.94
Heparin Binding ELISA Average OD450 [5]: 0.69
